From patent publication US20230096030A1 (UCB, published 2023) come the findings set out here.

Assay [1] addresses T1, recombinant human CD9 long extracellular loop 2-human Fc fusion protein (10015-CD, R&D Systems) (human, UniProt P21926 112-195).
T1 construct: Bought reagent; the order here follows the printed name; also called CD9-loop2; long extracellular loop 2 peptide; not shown: human Fc
T1 sequence: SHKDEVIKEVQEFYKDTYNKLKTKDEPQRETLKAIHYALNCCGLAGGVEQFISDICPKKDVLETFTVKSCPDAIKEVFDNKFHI
Description: BLI (Octet RED384), CD9 loop 2-Fc on AHC biosensors, Fab-Y 10 µg/mL. From the text:
CD9 contains two extracellular loops: a short extracellular loop (loop 1: 34-55 in SEQ ID NO:2) and a long extracellular loop (loop 2: 112-195 in SEQ ID NO:2). We used biolayer interferometry to assess binding of our panel of CD9 Fab-Y antibodies (selected for binding to full length cell-expressed CD9) to the long extracellular loop 2 peptide using the Octet® RED384 System (FortéBio) with Anti-hlgG Fc Capture (AHC) Biosensors (FortéBio) at room temperature. Firstly, an array of 8 sensors was dipped in kinetics buffer (PBS 0.1%, BSA 0.02%, Tween 20) for 120 seconds to provide a baseline signal. Sensors were then moved to wells containing 200 μl of recombinant human CD9 long extracellular loop 2-human Fc fusion protein (10015-CD, R&D Systems®) at 2 μg/mL in kinetics buffer to immobilize the protein to the biosensor (100 seconds), followed by a second baseline step (180 seconds) in kinetics buffer to equilibrate the biosensors now coated with the CD9 long extracellular loop 2-human Fc fusion protein. No detachment of the peptide was observed during this step. Sensors were then dipped in wells containing one of the anti-CD9 Fab (10 μg/mL) to evaluate association of each antibody to CD9-loop2 (120 seconds), followed by dissociation in kinetics buffer (600 seconds). Anti-CD137 Fab-Y (11175) was used as negative control during the antibody association step. […]
(BLI is a label-free optical method that tracks binding on a fibre tip over time.)

The target of assay [2] is T2, full length cell-expressed CD9 (human, UniProt P21926 2-228).
T2 construct: also called human CD9
T2 sequence: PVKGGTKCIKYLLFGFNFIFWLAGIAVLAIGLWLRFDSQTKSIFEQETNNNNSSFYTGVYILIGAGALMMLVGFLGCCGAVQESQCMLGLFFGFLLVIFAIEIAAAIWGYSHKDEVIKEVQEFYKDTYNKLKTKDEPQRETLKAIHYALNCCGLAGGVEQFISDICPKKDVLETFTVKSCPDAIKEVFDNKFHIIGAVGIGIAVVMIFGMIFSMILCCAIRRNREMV
Description: selection on cells expressing CD9; method not described.

B1: anti-CD9 Fab-Y 7272 (Fab, V domains shown)
VH: QSLEESGGRLVTPGTPLTLTCTVSGFSLSSYAMGWVRQAPGKGLEWIGAIGSITATGYARWAKGRFSISKTSTTVDLKMTSPTTEDTATYFCAREIYVGSAYAFDIWGPGTLVTVSS
VL: AYDMTQTPASVEVAVGDTVTIKCQASQSISNYLAWYQQKPGQPPKLLIYLASTLASGVPSRFKGSGSGTEFTLTISDLECADAATYYCQQGYIDNVNKGFGGGTEVVVK
notes: Tested as Fab-Y: Fab with the GCN4 peptide (clone 7P14P) attached by a peptide linker to CH1; also called VR7272
Turning to B1, the binding result in assay [1] and in assay [2] was “binds” in each case.
